How the values were obtained:
[1] = target: Human FAP (fibroblast activation protein) on cells (human, UniProt Q12884 1-760); test: cell-based or functional assay
[2] = target: T1, Human EpCAM on cells (human, UniProt P16422 24-314); test: cell-based or functional assay
T1 sequence: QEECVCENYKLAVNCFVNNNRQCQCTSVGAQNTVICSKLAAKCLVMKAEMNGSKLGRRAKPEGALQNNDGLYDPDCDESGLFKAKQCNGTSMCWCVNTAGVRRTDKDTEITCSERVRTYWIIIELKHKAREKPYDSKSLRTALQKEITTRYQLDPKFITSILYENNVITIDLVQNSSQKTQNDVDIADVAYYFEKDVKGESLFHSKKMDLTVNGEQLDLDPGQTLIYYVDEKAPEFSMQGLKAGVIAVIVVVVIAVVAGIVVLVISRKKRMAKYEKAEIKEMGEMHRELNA

[3] = target: T2, human FAP/seprase protein (Sino Biological Inc, 10464-H07H-10) (human, UniProt Q12884 26-760); test: ELISA on plate-coated human FAP/seprase (100 ng/well), anti-His detection, A450
T2 construct: also called recombinant FAP protein; FAP protein

[4] = target: T3, human EpCAM/TROP-1 protein (Sino Biological Inc, #10694-H02H-50) (human, UniProt P16422 24-265); test: ELISA on plate-coated human EpCAM/TROP-1 (50 ng/well), anti-His detection, A450
T3 construct: also called recombinant EpCAM protein; recombinant EpCAM
T3 sequence (looked up): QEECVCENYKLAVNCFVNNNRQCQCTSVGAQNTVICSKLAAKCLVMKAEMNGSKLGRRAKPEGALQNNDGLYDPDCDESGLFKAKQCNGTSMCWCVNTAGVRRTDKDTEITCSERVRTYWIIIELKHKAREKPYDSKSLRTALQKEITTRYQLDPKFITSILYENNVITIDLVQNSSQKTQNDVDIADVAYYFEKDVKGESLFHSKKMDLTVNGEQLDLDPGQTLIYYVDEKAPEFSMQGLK

B1: FAP bispecific T-cell activator (anti-FAP scFv x anti-CD3 scFv, with N-terminal signal sequence and C-terminal deca-His affinity tag) (bispecific antibody)
chain: DIVMTQSPDSLAVSLGERATINCKSSQSLLYSRNQKNYLAWYQQKPGQPPKLLIFWASTRESGVPDRFSGSGFGTDFTLTISSLQAEDVAVYYCQQYFSYPLTFGQGTKVEIKGGGGSGGGGSGGGGSQVQLVQSGAEVKKPGASVKVSCKTSRYTFTEYTIHWVRQAPGQRLEWIGGINPNNGIPNYNQKFKGRVTITVDTSASTAYMELSSLRSEDTAVYYCARRRIAYGYDEGHAMDYWGQGTLVTVSSGGGGSDVQLVQSGAEVKKPGASVKVSCKASGYTFTRYTMHWVRQAPGQGLEWIGYINPSRGYTNYADSVKGRFTITTDKSTSTAYMELSSLRSEDTATYYCARYYDDHYCLDYWGQGTTVTVSSGEGTSTGSGGSGGSGGADDIVLTQSPATLSLSPGERATLSCRASQSVSYMNWYQQKPGKAPKRWIYDTSKVASGVPARFSGSGSGTDYSLTINSLEAEDAATYYCQQWSSNPLTFGGGTKVEIKHHHHHHHHHH
[1]
  EC50 of T cell-mediated lysis of NHDF cells (LDH assay, 24 h, 8,000 NHDF with 40,000 T-cells): 3.2 ng/mL
  EC50 of fibroblast (NHDF) lysis by LDH release after 24 h co-culture with PBMC T-cells: ~2.5 ng/mL

B2: EpCAM bispecific T-cell activator (anti-EpCAM scFv x anti-CD3 scFv, with N-terminal signal sequence and C-terminal deca-His affinity tag) (bispecific antibody)
chain: ELVMTQSPSSLTVTAGEKVTMSCKSSQSLLNSGNQKNYLTWYQQKPGQPPKLLIYWASTRESGVPDRFTGSGSGTDFTLTISSVQAEDLAVYYCQNDYSYPLTFGAGTKLEIKGGGGSGGGGSGGGGSEVQLLEQSGAELVRPGTSVKISCKASGYAFTNYWLGWVKQRPGHGLEWIGDIFPGSGNIHYNEKFKGKATLTADKSSSTAYMQLSSLTFEDSAVYFCARLRNWDEPMDYWGQGTTVTVSSGGGGSDVQLVQSGAEVKKPGASVKVSCKASGYTFTRYTMHWVRQAPGQGLEWIGYINPSRGYTNYADSVKGRFTITTDKSTSTAYMELSSLRSEDTATYYCARYYDDHYCLDYWGQGTTVTVSSGEGTSTGSGGSGGSGGADDIVLTQSPATLSLSPGERATLSCRASQSVSYMNWYQQKPGKAPKRWIYDTSKVASGVPARFSGSGSGTDYSLTINSLEAEDAATYYCQQWSSNPLTFGGGTKVEIKHHHHHHHHHH
[2]
  EC50 of T cell-mediated lysis of DLD cells (LDH assay, 24 h, 8,000 DLD with 40,000 T-cells): 7.4 ng/mL

B3: Control (Anti-FHA) bispecific T-cell activator (anti-FHA scFv x anti-CD3 scFv, with N-terminal signal sequence and C-terminal deca-His affinity tag) (bispecific antibody)
chain: ELDIVMTQAPASLAVSLGQRATISCRASKSVSSSGYNYLHWYQQKPGQPPKLLIYLASNLESGVPARFSGSGSGTDFTLNIHPVEEEDAATYYCQHSREFPLTFGAGTKLEIKSSGGGGSGGGGGGSSRSSLEVQLQQSGPELVKPGASVKISCKTSGYTFTGYTMHWVRQSHGKSLEWIGGINPKNGGIIYNQKFQGKATLTVDKSSSTASMELRSLTSDDSAVYYCARRVYDDYPYYYAMDYWGQGTSVTVSSAKTTPPSVTSGGGGSDVQLVQSGAEVKKPGASVKVSCKASGYTFTRYTMHWVRQAPGQGLEWIGYINPSRGYTNYADSVKGRFTITTDKSTSTAYMELSSLRSEDTATYYCARYYDDHYCLDYWGQGTTVTVSSGEGTSTGSGGSGGSGGADDIVLTQSPATLSLSPGERATLSCRASQSVSYMNWYQQKPGKAPKRWIYDTSKVASGVPARFSGSGSGTDYSLTINSLEAEDAATYYCQQWSSNPLTFGGGTKVEIKHHHHHHHHHH
[3]
  binding result: no binding (tested: supernatant protein diluted 10-fold)
[4]
  binding result: no binding (tested: supernatant protein diluted 10-fold)

Reference: US20250026851A1 (AKAMIS BIO, published 2025)
